Key:
Oc1ccccc1O = experiment: purified protein; settings: 50 mM Tris-HCl pH 7.5, 37 °C, 20 min, catechol 0-200 µM, substrate O2 from air
[1] = molecular target: Catechol 1,2-dioxygenase from Paracoccus sp. MKU1 (Paracoccus sp. MKU1); experiment: SEC; purified C12O on Sephacryl S-300 HR, 50 mM Tris-HCl pH 8.5, 1 ml/min, A280; calibrated with NativeMark standards (20-1,236 kDa)

Row | stoichiometry N [1] | Substance | Km (Oc1ccccc1O) | kcat (Oc1ccccc1O)
1 |  | Catechol 1,2-dioxygenase (C12O) (Paracoccus sp. MKU1) | 12.89 µM | 199.5 s⁻¹
2 | 3 | Catechol 1,2-dioxygenase from Paracoccus sp. MKU1 (enzyme) |  | 
